Key:
[1] = Conformational and thermodynamic classification of A1 domain variants (urea and thermal denaturation, CD, FL, ANS); format: physicochemical
Procedure: Circular dichroism measurements were performed on a Model No. 420C circular-dichroism spectrometer (Aviv Biomedical, Inc., Lakewood Township, N.J.). All fluorescence (FL) measurements were performed on a Fluorolog3 spectrofluorometer (HORIBA Jobin-Yvon, Edison, N.J.) equipped with a Model No. LF1-3751 temperature controller (Wavelength Electronics Inc., Bozeman, Mont.). Near- and far-ultraviolet (UV) circular dichroism (CD), intrinsic protein FL, and ANS (8-anilino naphthalene sulfonic acid) […] spectra were determined as described in Tischer et al. (19). Urea denaturation (monitored by far-UV CD) and thermal denaturation (monitored by far-UV CD, intrinsic protein FL, and ANS FL) were performed and analyzed as previously described (19,20). Acrylamide quenching of intrinsic tryptophan fluorescence was performed and analyzed as described in Tischer et al. (19). All spectra were collected at 20° C.
The effects of mutations on the thermodynamic stability of A1 (18) was determined and a framework that incorporated partial unfolding as a means for enhancing the binding affinity of A1 for GPIba was developed (17). Initially, urea-temperature phase diagram method were used for assessing the reversible thermodynamics of unfolding at various temperatures (18,21), and more recently thermal denaturations were used to assess kinetic irreversibility (20,22). The inventor employed these methods using a variety of spectroscopic observables that assess the conformation of these A1 domain variants as a function of temperature and urea.
The observables included the following: (1) Far-UV CD to assess secondary structure content; (2) Near-UV CD to assess tertiary structure content; (3) Intrinsic protein FL to assess solvent exposure of tyrosine and tryptophan residues; (4) Acrylamide quenching of tryptophan FL to assess local solvent exposure of the single tryptophan residue; and (5) Binding of the molten globule indicator-dye, ANS, to assess exposure of hydrophobic surface area.
In total, these studies have provided metrics that are able to classify the conformation of A1 into three types, based on biophysical spectroscopy, as follows:
The type 2B mutations R1306Q and I1309V and the type 2M mutation G1324S have previously been characterized in this conformational class (18). In addition, R1308L and I1372S also belong to this class.
The type 2M mutation A1437T and the type 2B mutation R1341Q belong to this class.
The type 2M mutations F1369I, E1359K, I1425F, S1285F, and R1374H, and the type 2B mutations H1268D, P1337L, V1316M, and V1314D, belong to this class.

platelet GPIbα = target: T1, platelet GPIbα (Homo sapiens, UniProt P07359); test: Platelet pause times on surface-captured A1 domain variants, parallel plate flow chamber (Table 4, Example 3); format: cell-based; design: key to Pause Time 1500 s^−1 (s): NB = “No Binding.”; conditions: for Platelet binding to surface-captured A1 domain variant: any shear rate; for Pause Time 1500 s^−1 (s): shear rate 1500 s^−1, mean ± std. dev., number of measurements in parentheses, NB = No Binding
T1 construct: endogenous in cells; host or cells: platelets in citrated whole blood of normal healthy volunteer donors
Procedure: The determination and analysis of platelet pause times and instantaneous translocation velocities over surface captured A1 and RCAM A1 was performed as previously described (Tischer:2013). Here, the inventor used the Cellix Mims Evo syringe pump controlled by VenaFluxAssay (www.cellixltd.com). Vena8™ CGS biochips were custom designed with 800 μm width by 80 μm height microchannels bonded to glass slides with a Cu^2+ chelated PEG surface serviced by Microsurfaces Inc. (www.proteinslides.com/histag.html) to which the A1 and RCAM A1 in TBS were captured by the 6×His-Tag at a total concentration of 5 μM. Citrated whole blood was obtained from the informed consent of healthy volunteer donors with approval from the Mayo Clinic Institutional Review Board and 100 μL was perfused over the surface captured A1 domains at 700 s^−1. The shear was increased or decreased in a stepwise manner to measure the dynamics of platelet adhesion at high and low shear. After allowing the flow chamber to equilibrate for 50 s at each shear rate, 1 min movies were recorded at 24 frames per second in phase contrast at 200× magnification with 2×2 pixel binning on a Zeiss AxioCam Mrm camera (6.45 μm/px) attached to a Zeiss Axio Observer.D1 inverted microscope. Tracking analysis was performed using MediaCybernetics ImagePro® Premier (www.mediacy.com/index.aspx?page=IP\_Premier) The distance travelled in the direction of flow was calculated from the coordinate data for each platelet as a function of time using √{square root over ((xt−x0)^2)}, where x0 is the coordinates of a platelet on the first frame of the movie and xt is the coordinate on subsequent frames of the movie. These trajectories were differentiated into instantaneous velocities using a Savitzky-Golay algorithm (Savitzky:1964) with a five data point window size and a second order polynomial implemented into a Mathematica (www.wolfram.com/mathematica) notebook written in our lab. Trajectories were retained for statistical analysis if the platelet was present for ≧1 s and travelled a total distance greater than 1 Distance travelled in pixels (px) was converted to (μm) using 6.45 μm/px*2/200=0.0645 μm/px. Pause times were determined by the amount of time (sec) a platelets velocity was 0±4 px/s≅0±0.23 μm/s, within the noise. Data are reported as mean velocities and pause times attained by individual platelets averaged over all platelets analyzed. Integral analysis of the cumulative pause time histogram gives the survival fraction, equation (24).
The rheological interaction of platelets with A1 domain variants harboring type 2M and type 2B mutations was studied using recently developed flow-chamber methods (19). The A1 domains ([…]) were immobilized on Vena8™ biochips (Cellix, Dublin, Ireland) coated with a Cu^2+-chelated poly-ethylene-glycol surface serviced by MicroSurfaces, Inc. (Englewood, N.J.) via the 6×His-Tag, enabling the preservation of the structural properties of the domain in solution and its concomitant effects on platelet adhesion under rheological shear flow. One-hundred microliters of citrated whole blood, obtained from the informed consent of normal healthy volunteer donors with approval from the Mayo Clinic Institutional Review Board (Rochester, Minn.), was perfused at a shear rate of 800 s^−1 followed by Tris-buffered saline. Platelets translocating on the surface-captured domains were filmed at 24 frames/s for 1 min at logarithmic intervals of the shear rate. Coordinates obtained from tracking analysis of the resulting movies were processed using the inventor recently developed statistical analytics for the quantification of cellular adhesion dynamics across immobilized receptors under rheological shear flow (supra). Biochips lacking the surface-captured A1 domain were completely inert to platelets.

In the case of “S1285F: vWF A1 domain variant with type 2M vWD mutation S1285F”, the “Conformational class (in words)” value [1] is reported as “significantly reduced tertiary structure content”, the “Platelet binding to surface-captured A1 domain variant” value (from here on “Platelet binding”) (platelet GPIbα) is reported as “did not bind platelets at any shear rate” and the “Pause Time 1500 s^−1 (s)” value (platelet GPIbα) is reported as “NB (2)”.

For “F1369I: vWF A1 domain variant with type 2M vWD mutation F1369I”, the “Conformational class (in words)” value [1] was “significantly reduced tertiary structure content”, the “Platelet adhesion function (gain or loss of function)” value (platelet GPIbα) was “complete loss-of-function” and the “Platelet binding” value (platelet GPIbα) was “did not bind platelets at any shear rate”. For the same substance, the “Pause Time 1500 s^−1 (s)” value (platelet GPIbα) was “NB (2)”.

With “P1337L: vWF A1 domain variant with type 2B vWD mutation P1337L” the “Conformational class (in words)” value [1] was “significantly reduced tertiary structure content” and the “Platelet adhesion function (gain or loss of function)” value (platelet GPIbα) was “extreme type 2B gain-of-function”.

For “E1359K: vWF A1 domain variant with type 2M vWD mutation E1359K”, the “Conformational class (in words)” value [1] was “significantly reduced tertiary structure content”, the “Platelet adhesion function (gain or loss of function)” value (platelet GPIbα) was “complete loss-of-function” and the “Platelet binding” value (platelet GPIbα) was “did not bind platelets at any shear rate”. For the same substance, the “Pause Time 1500 s^−1 (s)” value (platelet GPIbα) was “NB (2)”.

In the case of “I1425F: vWF A1 domain variant with type 2M vWD mutation I1425F”, the “Conformational class (in words)” value [1] is reported as “significantly reduced tertiary structure content”, the “Platelet binding” value (platelet GPIbα) is reported as “did not bind platelets at any shear rate” and the “Pause Time 1500 s^−1 (s)” value (platelet GPIbα) is reported as “NB (2)”.

With “A1437T: vWF A1 domain variant with type 2M vWD mutation A1437T” the “Conformational class (in words)” value [1] was “reduced secondary structure content”, the Thermodynamic stability ([1]; urea and thermal denaturation) was “low stability” and the “Platelet adhesion function (gain or loss of function)” value (platelet GPIbα) was “mild loss-of-function”.

For “R1374H: vWF A1 domain variant with type 2M vWD mutation R1374H”, the “Conformational class (in words)” value [1] was “significantly reduced tertiary structure content”, the “Platelet binding” value (platelet GPIbα) was “did not bind platelets at any shear rate” and the “Pause Time 1500 s^−1 (s)” value (platelet GPIbα) was “NB (2)”.

With “G1324S: vWF A1 domain variant with type 2M vWD mutation G1324S” the “A1 domain Conformation” value [1] was “N (N = “Native” (native structure with varying thermodynamic stability))”, the “Conformational class (in words)” value [1] was “global native fold” and the “Pause Time 1500 s^−1 (s)” value (platelet GPIbα) was “NB (3)”.
